Values joined by “and” are separate entries in the source; they are usually repeats but may differ in a detail not shown here. Identical values can stand only once.
How the values were obtained:
[1] = tested on: patients with hypercholesterolemia at moderate cardiovascular (CV) risk; assay: Example 2: safety (TEAEs, laboratory parameters, vital signs)
Source text: The clinical laboratory data consisted of urinalysis and blood analysis, hematology (RBC count, red blood cell distribution width (RDW), reticulocyte count, hemoglobin, hematocrit, platelets, WBC count with differential blood count), standard chemistry (glucose, sodium, potassium, chloride, bicarbonate, calcium, phosphorous, urea nitrogen, creatinine, uric acid, total protein, LDH, albumin, γ Glutamyl Transferase [γGT]), Hepatitis C antibody, liver panel (ALT, AST, ALP, and total bilirubin), and CPK.
Safety endpoints—Vital signs measurement: Vital signs included: HR, systolic and diastolic BP in sitting position.
The safety analysis included all randomized and treated patients. Safety data were analyzed by descriptive statistics.

[2] = tested on: patients with primary hypercholesterolemia (heFH and non-FH) who are intolerant to statins; assay: Example 3: safety (TEAEs, skeletal muscle-related events); conditions: in vivo
[3] = tested on: patient population with non-familial hypercholesterolemia or with heterozygous familial hypercholesterolemia; assay: Phase 2 studies / earlier clinical data of mAb316P; format: in vivo, human
Source text: The efficacy on LDL-C lowering was associated with consistent results in total-C, ApoB, non-HDL-C and ApoB/ApoA-1 ratio and a positive trend for HDL-C, TG and Lp(a).

[4] = tested on: patients with primary hypercholesterolemia (heFH and non-FH) who are intolerant to statins; assay: Example 3: randomized double-blind trial mAb316P versus ezetimibe (atorvastatin calibrator arm), lipid parameters; format: in vivo, human
Source text: The present study was a randomized, double-blind, double-dummy, active-controlled, parallel-group, multi-national, multi-center study in patients with primary hypercholesterolemia and moderate, high, or very high CV risk who are intolerant to statins. The study design is illustrated in FIG. 7.
Primary Efficacy Endpoint: The primary efficacy endpoint was the percent change in calculated LDL-C from baseline to week 24, which was defined as: 100× (calculated LDL-C value at week 24—calculated LDL-C value at baseline)/calculated LDL-C value at baseline. A baseline LDL-C value was needed for each patient as the baseline calculated LDL-C value was the last LDL-C level obtained before the first double-blind study drug injection.
Total-C, HDL-C, TG, ApoB, ApoA-1, and Lp(a) were directly measured by a central laboratory as per a predetermined schedule. Low-density lipoprotein cholesterol was calculated using the Friedewald formula at all visits (except week −15 and the follow-up visit). If TG values exceeded 400 mg/dL (4.52 mmol/L), then the central lab measured (via the beta quantification method) the LDL-C rather than calculate it. Non-HDL-C was calculated by subtracting HDL-C from the total-C. Ratio ApoB/ApoA-1 was calculated.
The double-blind period efficacy endpoint analysis results in the order of statistical hierarchical testing as specified in the above protocol (with multiple testing controlled at the 0.05 significance level) is set forth in Table 12. Primary and key secondary efficacy analyses were performed comparing mAb316P-treated patients to ezetimibe-treated patients. For clarification, the ITT analysis is defined for patients in the ITT population and includes all endpoint assessments in an analysis window, regardless of study treatment dosing status (i.e. includes post-treatment assessments). The on-treatment analysis is defined for patients in the mITT population and includes all endpoint assessments from the first double-blind study drug (capsule or injection, whichever comes first) up to 21 days after the last double-blind study drug injection, or 3 days after the last capsule intake, whichever came first (i.e. includes assessments in the efficacy treatment period). Note: A result is statistically significant if the p-value is s 0.05, in the order of the hierarchical testing.

[5] = tested on: healthy subjects and hypercholesterolemic patients (familial or non-familial); assay: Phase 1 studies of mAb316P (safety, tolerability, PK/PD; IV or SC); format: in vivo, human
Procedure: Two studies were single dose administration (one study with IV administration of doses from 0.3 mg to 12 mg/kg and another study with SC administration of doses from 50 mg to 250 mg) conducted in healthy subjects with LDL-C>100 mg/dL for whom statin therapy was not indicated. The third study was conducted in hypercholesterolemic patients (familial or non-familial) with single to multiple SC administration of 50 mg, 100 mg, 150 mg and 200 mg either as add-on to stable doses of atorvastatin from 10 mg to 40 mg/day or as monotherapy.
No pattern of adverse events (AEs) related to the drug was identified. […] The magnitude and duration of these reductions were positively related to the dose administered. It should also be noted that in the third study, results were similar in the familial and non-familial hypercholesterolemic patients.

[6] = Week 12, individual patient 6 who reported high blood glucose
[7] = Week 24, individual patients (arbitrary numbers 1-5) who reported high blood glucose
[8] = clinical data available at commencement of Example 3 study

“mAb316P: human anti-PCSK9 antibody; heavy chain SEQ ID NO:5, light chain SEQ ID NO:9; HCVR SEQ ID NO:1, LCVR SEQ ID NO:6” was tested, and the “Albumin ≦25 g/L” value ([1]; Laboratory parameters) was 0/51, the “Aspartate aminotransferase >3× ULN” value ([1]; Laboratory parameters) was 0/52 and the “Creatine kinase >3× ULN” value ([1]; Laboratory parameters) was 0/51. For the same substance, the “Creatine kinase >10× ULN” value ([1]; Laboratory parameters) was 0/51, the “Glucose ≦70 mg/dL (3.9 mmol/L) and <LLN” value ([1]; Laboratory parameters) was 0/52 and the “Patients with any TEAE” value ([1]; Safety Population) was 36 (69.2) n (%). The “Patients with any TEAE leading to death” value ([1]; Safety Population) was 0 n (%), the “Patients with any TEAE leading to treatment discontinuation” value ([1]; Safety Population) was 5 (9.6) n (%) and the “Patients with any treatment emergent SAE” value ([1]; Safety Population) was 1 (1.9) n (%). For the same substance, the Arthralgia ([1]; TEAE) was 3 (5.8) n (%), the Diarrhea ([1]; TEAE) was 6 (11.5) n (%) and the Dizziness ([1]; TEAE) was 1 (1.9) n (%). The Headaches ([1]; TEAE) was 3 (5.8) n (%), the Influenza ([1]; TEAE) was 6 (11.5) n (%) and the Nasopharyngitis ([1]; TEAE) was 12 (23.1) n (%). For the same substance, the Nausea ([1]; TEAE) was 3 (5.8) n (%), the “Upper respiratory tract infection” value ([1]; TEAE) was 2 (3.8) n (%) and the Urinary tract infection ([1]; TEAE) was 0 n (%). For the same substance, the back pain ([1]; TEAE) was 1 (1.9) n (%), the “General disorders and administration site conditions” value ([1]; TEAEs of interest) was 5 (9.6) n (%) and the Injection site reaction ([1]; TEAEs of interest) was 1 (1.9) n (%). For the same substance, the Muscle disorders ([1]; TEAEs of interest) was 2 (3.8) n (%), the “Musculoskeletal and connective tissue disorders” value ([1]; TEAEs of interest) was 8 (15.4) n (%) and the “Musculoskeletal and connective tissue disorders NEC” value ([1]; TEAEs of interest) was 2 (3.8) n (%). For the same substance, the Musculoskeletal pain ([1]; TEAEs of interest) was 1 (1.9) n (%), the Myalgia ([1]; TEAEs of interest) was 2 (3.8) n (%) and the muscle spasms ([1]; TEAEs of interest) was 0 n (%). For the same substance, the Fasting blood glucose [1, 6] was 135 mg/dL, the HbA1c [1, 6] was 6.3% and the Fasting blood glucose [1, 7] was 121 mg/dL and 112 mg/dL (2×) and 70 mg/dL and 183 mg/dL. The HbA1c [1, 7] was 6.5% and 5.9% (2×) and 6.2% and 7.7%, the “Muscle-related AEs” value ([1]; discussion) was 4% and the “injection related AEs” value ([1]; disposable autoinjector) was less than 2%. The “Muscle-related TEAEs” value ([1]; in vivo) was 2 (4%) patients (%), the “overall percentage of patients who experienced at least one TEAE” value ([1]; in vivo) was 69% and the “patients with abnormalities in vital signs (blood pressure, heart rate)” value ([1]; in vivo) was “no patients”. For the same substance, the “patients with blood glucose >126 mg/dL (7 mmol/L)” value ([1]; in vivo) was 6 patients, the “patients who experienced at least 1 LDL-C value<25 mg/dL” value ([1]; mAb316P 75 mg Q2W) was “Three” and the tolerability and safety ([1]; overall conclusion) was “tolerability and safety comparable with ezetimibe”. For the same substance, the “patients positively adjudicated for non-fatal MI” value [2] was “one (0.8%) patient (%)”, the LDL-C lowering effect [3, 8] was “significant LDL-C lowering effect” and the tolerability [3, 8] was “generally well-tolerated”. The “serum total concentrations of mAb316P during the 8-week follow-up period” value ([3]; preliminary PK data from Phase 2 studies) was “still detectable, but at very low levels”, the “Apo A-1 Diff mAb316P vs ezetimibe” value ([4]; WK12, ITT analysis) was “Diff: 1.6%” and the “Apo A-1 LS mean percent change from baseline” value ([4]; WK12, ITT analysis) was “LS mean: 5.5%”. For the same substance, the “Apo B Diff mAb316P vs ezetimibe” value ([4]; WK12, ITT analysis) was “Diff: −24.5%”, the “Apo B LS mean percent change from baseline” value ([4]; WK12, ITT analysis) was “LS mean: −36.1%” and the “Fasting Triglycerides Diff mAb316P vs ezetimibe” value ([4]; WK12, ITT analysis) was “Diff: 1.3%”. The “Fasting Triglycerides LS mean percent change from baseline” value ([4]; WK12, ITT analysis) was “LS mean: −8.1%”, the “HDL-C Diff mAb316P vs ezetimibe” value ([4]; WK12, ITT analysis) was “Diff: 1.4%” and the “HDL-C LS mean percent change from baseline” value ([4]; WK12, ITT analysis) was “LS mean: 9.0%”. For the same substance, the “LDL-C Diff mAb316P vs ezetimibe” value ([4]; WK12, ITT analysis) was “Diff: −31.5%”, the “LDL-C LS mean percent change from baseline” value (“LDL-C LS mean percent change” below) ([4]; WK12, ITT analysis) was “LS mean: −47.0%” and the “Lp(a) Diff mAb316P vs ezetimibe” value ([4]; WK12, ITT analysis) was “Diff: −17.2%”. The “Lp(a) LS mean percent change from baseline” value ([4]; WK12, ITT analysis) was “LS mean: −21.7%”, the “Non-HDL-C Diff mAb316P vs ezetimibe” value ([4]; WK12, ITT analysis) was “Diff: −25.7%” and the “Non-HDL-C LS mean percent change from baseline” value ([4]; WK12, ITT analysis) was “LS mean: −25.7%”. For the same substance, the “Total Cholesterol Diff mAb316P vs ezetimibe” value ([4]; WK12, ITT analysis) was “Diff: −21.1%”, the “Total Cholesterol LS mean percent change from baseline” value ([4]; WK12, ITT analysis) was “LS mean: −32.7%” and the “LDL-C Diff mAb316P vs ezetimibe” value ([4]; WK12, on-treatment analysis) was “Diff: −33.1%”. The “LDL-C LS mean percent change” value ([4]; WK12, on-treatment analysis) was “LS mean: −51.2%”, the “Apo A-1 Diff mAb316P vs ezetimibe” value ([4]; WK24, ITT analysis) was “Diff: 1.9%” and the “Apo A-1 LS mean percent change from baseline” value ([4]; WK24, ITT analysis) was “LS mean: 4.8%”. The “Fasting Triglycerides Diff mAb316P vs ezetimibe” value ([4]; WK24, ITT analysis) was “Diff: −5.6%”, the “Fasting Triglycerides LS mean percent change from baseline” value ([4]; WK24, ITT analysis) was “LS mean: −9.2%” and the “HDL-C Diff mAb316P vs ezetimibe” value ([4]; WK24, ITT analysis) was “Diff: 0.9%”. The “HDL-C LS mean percent change from baseline” value ([4]; WK24, ITT analysis) was “LS mean: 7.7%”, the “Proportion with LDL-C <70 mg/dL” value ([4]; WK24, ITT analysis) was “Proportion = 32.5%” and the “Proportion with Very High CV LDL-C <70 mg/dL OR Moderate/High CV LDL-C <100 mg/dL” value ([4]; WK24, ITT analysis) was “Proportion = 41.3%”. The “Total Cholesterol Diff mAb316P vs ezetimibe” value ([4]; WK24, ITT analysis) was “Diff: −20.8%”, the “Total Cholesterol LS mean percent change from baseline” value ([4]; WK24, ITT analysis) was “LS mean: −31.8%” and the “Apo B Diff mAb316P vs ezetimibe” value ([4]; WK24, on-treatment analysis) was “Diff: −28.2%”. The “Apo B LS mean percent change from baseline” value ([4]; WK24, on-treatment analysis) was “LS mean: −42.6%”, the “LDL-C Diff mAb316P vs ezetimibe” value ([4]; WK24, on-treatment analysis) was “Diff: −35.1%” and the “LDL-C LS mean percent change” value ([4]; WK24, on-treatment analysis) was “LS mean: −52.2%”. For the same substance, the “Non-HDL-C Diff mAb316P vs ezetimibe” value ([4]; WK24, on-treatment analysis) was “Diff: −29.8%”, the “Non-HDL-C LS mean percent change from baseline” value ([4]; WK24, on-treatment analysis) was “LS mean: −46.9%” and the “Proportion with LDL-C <70 mg/dL” value ([4]; WK24, on-treatment analysis) was “Proportion = 39.0%”. For the same substance, the “Proportion with Very High CV LDL-C <70 mg/dL OR Moderate/High CV LDL-C <100 mg/dL” value ([4]; WK24, on-treatment analysis) was “Proportion = 50.4%”, the “patients who reached LDL-C goal at week 24” value ([4]; goal <70 mg/dL very high risk, <100 mg/dL moderate and high risk) was 41.9% and the “LS mean LDL-C value at week 24” value ([4]; in vivo) was 108.5 mg/dL. For the same substance, the “change in LDL-C level from baseline” value ([4]; week 24) was -84 mg/dL, the “reductions from baseline in LDL-C” value ([5]; Phase 1 studies, up to (maximum)) was “up to 60%” and the tolerability ([5]; healthy subjects and patients, all doses) was “generally well tolerated at all doses”.

Reference: patent US20150140002A1, “USE OF A PCSK9 INHIBITOR TO TREAT […]” (Sanofi, priority 2013, published 2015)
